Measurements: paper PMC11634027
One block for each substance: values may come before it.

How the values were obtained:
[1] = target: Ds-TM-ICD-ΔD-II:V5 (Drosophila); test: co-IP; S2 cells co-transfected; lysed in RIPA buffer; results in supplementary figures (S6-S9) or without a figure; which beads (V5-Trap or Fab-Trap) is not told in what was shown
[2] = target: Ds-TM-ICD-ΔD-III:V5 (Drosophila); test: as above
[3] = target: Ds-TM-ICD-ΔD-II:V5 (Drosophila); test: co-IP; S2 cells co-transfected; lysed in RIPA buffer; V5-tagged Ds construct precipitated with V5-Trap magnetic agarose beads, 1 h; blots with anti-V5 and anti-FLAG (Figs 4E, 5G, 6D,F, 8K)
[4] = target: Ds-TM-ICD-ΔD-III:V5 (Drosophila); test: as above

- co-precipitation relative to Ds-ICD full length [1]: 30%
- co-precipitation relative to Ds-ICD full length [2]: 35%
Substance: Sple-N:FLAG (from UniProt A1Z6W3 1-349) (domain or fragment)

- co-precipitation relative to control (Ds-ICD:V5) [3]: 57%
- co-precipitation relative to control (Ds-ICD:V5) [4]: 40%
Substance: MyoID:FLAG (from UniProt Q23978 1-1011) (natural protein)

- co-precipitation relative to Ds-ICD full length [3]: 15%
Substance: FLAG:Lft (Lowfat) (from UniProt Q9VKY1 1-268) (natural protein)
